Measurements as given in patent US20260116937A1 (CHARACTER BIOSCIENCES, published 2026).

B1: Var004 (engineered variant of FHL-1) (designed binder)
chain: EDCNELPPRRNTEILTGSWSDQTYPEGTQAIYKCRPGYRSLGNVIMVCRKGEWVALNPLRKCQKRPCGHPGDTPFGTFTLTGGNVFEYGVKAVYTCNEGYQLLGEINYRECDTDGWTNDIPICEVVKCLPVTAPENGKIVSSAMEPDREYHFGQAVRFVCNSGYKIEGDEEMHCSDDGFWSKEKPKCVEISCKSPDVINGSPISQKIIYKENERFQYKCNMGYEYSERGDAVCTESGWRPLPSCEEKSCDNPYIPNGDYSPLRIKHRTGDEITYQCRNGFYPATRGNTAKCTSTGWIPAPRCTLKPCDYPDIKHGGLYHENMRRPYFPVAVGKYYSYYCDEHFETPSGSYWDHIHCTQDGWSPAVPCLRKCYFPYLENGYNQNYGRKFVQGKSIDVACHPGYALPKAQTTVTCMENGWSPTPRCIRVSGGGGSGGGGSGGGGSTLKPCDYPDIKHGGLYHENMRRPYFPVAVGKYYSYYCDEHFETPSGSYWDHIHCTQDGWSPAVPCLRKCYFPYLENGYNQNYGRKFVQGKSIDVACHPGYALPKAQTTVTCMENGWSPTPRCIRVSFTL
notes: Tested as purified protein or as CHO culture supernatant; also called FHL-1 engineered variant
B2: Factor H-like protein 1 (FHL-1) (other)
chain: EDCNELPPRRNTEILTGSWSDQTYPEGTQAIYKCRPGYRSLGNVIMVCRKGEWVALNPLRKCQKRPCGHPGDTPFGTFTLTGGNVFEYGVKAVYTCNEGYQLLGEINYRECDTDGWTNDIPICEVVKCLPVTAPENGKIVSSAMEPDREYHFGQAVRFVCNSGYKIEGDEEMHCSDDGFWSKEKPKCVEISCKSPDVINGSPISQKIIYKENERFQYKCNMGYEYSERGDAVCTESGWRPLPSCEEKSCDNPYIPNGDYSPLRIKHRTGDEITYQCRNGFYPATRGNTAKCTSTGWIPAPRCTLKPCDYPDIKHGGLYHENMRRPYFPVAVGKYYSYYCDEHFETPSGSYWDHIHCTQDGWSPAVPCLRKCYFPYLENGYNQNYGRKFVQGKSIDVACHPGYALPKAQTTVTCMENGWSPTPRCIRVSFTL
notes: Control protein, purified or as CHO culture supernatant; also called native FHL-1
B3: complement factor H (CFH) (other)
chain: EDCNELPPRRNTEILTGSWSDQTYPEGTQAIYKCRPGYRSLGNVIMVCRKGEWVALNPLRKCQKRPCGHPGDTPFGTFTLTGGNVFEYGVKAVYTCNEGYQLLGEINYRECDTDGWTNDIPICEVVKCLPVTAPENGKIVSSAMEPDREYHFGQAVRFVCNSGYKIEGDEEMHCSDDGFWSKEKPKCVEISCKSPDVINGSPISQKIIYKENERFQYKCNMGYEYSERGDAVCTESGWRPLPSCEEKSCDNPYIPNGDYSPLRIKHRTGDEITYQCRNGFYPATRGNTAKCTSTGWIPAPRCTLKPCDYPDIKHGGLYHENMRRPYFPVAVGKYYSYYCDEHFETPSGSYWDHIHCTQDGWSPAVPCLRKCYFPYLENGYNQNYGRKFVQGKSIDVACHPGYALPKAQTTVTCMENGWSPTPRCIRVKTCSKSSIDIENGFISESQYTYALKEKAKYQCKLGYVTADGETSGSITCGKDGWSAQPTCIKSCDIPVFMNARTKNDFTWFKLNDTLDYECHDGYESNTGSTTGSIVCGYNGWSDLPICYERECELPKIDVHLVPDRKKDQYKVGEVLKFSCKPGFTIVGPNSVQCYHFGLSPDLPICKEQVQSCGPPPELLNGNVKEKTKEEYGHSEVVEYYCNPRFLMKGPNKIQCVDGEWTTLPVCIVEESTCGDIPELEHGWAQLSSPPYYYGDSVEFNCSESFTMIGHRSITCIHGVWTQLPQCVAIDKLKKCKSSNLIILEEHLKNKKEFDHNSNIRYRCRGKEGWIHTVCINGRWDPEVNCSMAQIQLCPPPPQIPNSHNMTTTLNYRDGEKVSVLCQENYLIQEGEEITCKDGRWQSIPLCVEKIPCSQPPQIEHGTINSSRSSQESYAHGTKLSYTCEGGFRISEENETTCYMGKWSSPPQCEGLPCKSPPEISHGVVAHMSDSYQYGEEVTYKCFEGFGIDGPAIAKCLGEKWSHPPSCIKTDCLSLPSFENAIPMGEKKDVYKAGEQVTYTCATYYKMDGASNVTCINSRWTGRPTCRDTSCVNPPTVQNAYIVSRQMSKYPSGERVRYQCRSPYEMFGDEEVMCLNGNWTEPPQCKDSTGKCGPPPPIDNGDITSFPLSVYAPASSVEYQCQNLYQLEGNKRITCRNGQWSEPPKCLHPCVISREIMENYNIALRWTAKQKLYSRTGESVEFVCKRGYRLSSRSHTLRTTCWDGKLEYPTCAKR
notes: Purified CFH used as control

molecular target: T1, human C3b (human, UniProt P01024 749-1663; P01024 23-667); assay: ELISA on C3b-coated plates, absorbance at 450 nm
T1 construct: Coated on ELISA plates
Experimental: A representative example of an FHL-1 engineered variant (e.g., a polypeptide of SEQ ID NO: 21) was compared with CFH and FHL-1 for C3b binding activity as presented in FIGS. 14A and 14B. […] In general, the data was derived from measuring binding on C3b coated plates via ELISA for test proteins (either as purified proteins or as culture supernatants from CHO cells transfected with expression vectors encoding test proteins). C3b binding activity was measured via absorbance at 450 nm. Mean+/−SEM absorbance values are shown with nonlinear sigmoidal 4PL fit. Of note, the FHL-1 engineered variant (e.g., Var 004, SEQ ID NO: 21) has increased C3b binding activity over native FHL-1.

T1 sequence (P01024 749-1663, chain 1 of 2): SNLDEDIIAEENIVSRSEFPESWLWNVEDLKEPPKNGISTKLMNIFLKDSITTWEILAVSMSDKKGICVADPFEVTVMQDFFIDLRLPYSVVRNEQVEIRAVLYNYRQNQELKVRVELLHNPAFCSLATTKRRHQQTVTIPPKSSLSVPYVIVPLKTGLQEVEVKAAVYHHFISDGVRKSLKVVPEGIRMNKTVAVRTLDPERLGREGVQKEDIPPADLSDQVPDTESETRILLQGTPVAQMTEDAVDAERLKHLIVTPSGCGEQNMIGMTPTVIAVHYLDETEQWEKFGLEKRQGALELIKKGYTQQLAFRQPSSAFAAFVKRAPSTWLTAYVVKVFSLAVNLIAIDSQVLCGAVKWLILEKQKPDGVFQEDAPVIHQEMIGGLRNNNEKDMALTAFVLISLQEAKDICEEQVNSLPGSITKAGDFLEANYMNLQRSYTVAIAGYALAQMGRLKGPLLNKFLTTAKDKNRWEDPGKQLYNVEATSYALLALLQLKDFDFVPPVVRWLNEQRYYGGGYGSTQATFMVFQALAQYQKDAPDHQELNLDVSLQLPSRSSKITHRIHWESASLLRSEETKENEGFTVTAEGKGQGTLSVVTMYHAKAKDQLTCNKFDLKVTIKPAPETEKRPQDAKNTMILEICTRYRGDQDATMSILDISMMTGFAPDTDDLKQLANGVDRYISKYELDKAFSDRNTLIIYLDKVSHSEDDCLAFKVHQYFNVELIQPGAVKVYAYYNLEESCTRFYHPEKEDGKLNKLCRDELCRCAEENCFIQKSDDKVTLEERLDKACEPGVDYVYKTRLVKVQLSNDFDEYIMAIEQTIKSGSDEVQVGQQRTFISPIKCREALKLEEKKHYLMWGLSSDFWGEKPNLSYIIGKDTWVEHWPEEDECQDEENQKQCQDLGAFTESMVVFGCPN
T1 sequence (P01024 23-667, chain 2 of 2): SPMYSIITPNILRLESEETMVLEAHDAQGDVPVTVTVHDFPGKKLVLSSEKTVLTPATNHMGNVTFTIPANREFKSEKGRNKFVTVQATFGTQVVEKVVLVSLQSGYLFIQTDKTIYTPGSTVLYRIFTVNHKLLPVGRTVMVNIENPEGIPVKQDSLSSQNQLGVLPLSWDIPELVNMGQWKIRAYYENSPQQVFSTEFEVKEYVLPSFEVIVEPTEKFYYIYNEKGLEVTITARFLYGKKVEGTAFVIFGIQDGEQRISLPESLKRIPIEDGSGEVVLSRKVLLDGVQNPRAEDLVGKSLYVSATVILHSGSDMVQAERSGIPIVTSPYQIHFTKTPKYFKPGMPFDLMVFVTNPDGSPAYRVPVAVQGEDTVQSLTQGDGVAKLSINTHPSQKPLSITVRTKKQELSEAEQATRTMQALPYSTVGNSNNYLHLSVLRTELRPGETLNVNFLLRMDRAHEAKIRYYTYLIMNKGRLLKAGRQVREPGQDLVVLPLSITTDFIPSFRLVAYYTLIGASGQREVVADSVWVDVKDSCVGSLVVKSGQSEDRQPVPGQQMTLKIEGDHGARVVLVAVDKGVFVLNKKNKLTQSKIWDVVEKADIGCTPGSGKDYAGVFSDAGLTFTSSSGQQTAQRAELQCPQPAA

binding result | Binder
binds | B1
binds | B2
binds | B3
